± gives the standard deviation of the averaged measurements.

Here are results for 9 sequences from the supplement of paper PMC11246515.

The series is described as follows: total protein half-life in vivo (active degradation + dilution); higher = more stable protein.
Setting [1] is: E. coli NCM3722 delta-clpP delta-lon delta-hslV, growth: N-lim chemostat, doubling time 6 h.
Where [2] appears, read: E. coli NCM3722 delta-clpP, growth: N-lim chemostat, doubling time 6 h.
Where [3] appears, read: E. coli NCM3722 delta-smpB, growth: N-lim chemostat, doubling time 6 h.
Setting [4] is: wild type E. coli NCM3722, growth: C-lim chemostat, doubling time 6 h.
The mark [5] stands for this setting: wild type E. coli NCM3722, growth: P-lim chemostat, doubling time 12 h.
Where [6] appears, read: E. coli NCM3722 delta-hslV, growth: N-lim chemostat, doubling time 6 h.
Setting [7] is: E. coli NCM3722 delta-lon, growth: N-lim chemostat, doubling time 6 h.
The mark [8] stands for this setting: wild type E. coli NCM3722, growth: C-lim chemostat, doubling time 3 h.
The mark [9] stands for this setting: wild type E. coli NCM3722, growth: C-lim chemostat, doubling time 12 h.
The mark [10] stands for this setting: wild type E. coli NCM3722, growth: N-lim chemostat, doubling time 6 h.
The mark [11] stands for this setting: wild type E. coli NCM3722, growth: N-lim chemostat, doubling time 12 h.
Where [12] appears, read: wild type E. coli NCM3722, growth: P-lim chemostat, doubling time 6 h.

As to “MPEVQTDHPETAELSKPQLRMVDLNLLTVFDAVMQEQNITRAAHVLGMSQPAVSNAVARLKVMFNDELFVRYGRGIQPTARAFQLFGSVRQALQLVQNELPGSGFEPASSERVFHLCVCSPLDSILTSQIYNHIEQIAPNIHVMFKSSLNQNTEHQLRYQETEFVISYEDFHRPEFTSVPLFKDEMVLVASKNHPTIKGPLLKHDVYNEQHAAVSLDRFASFSQPWYDTVDKQASIAYQGMAMMSVLSVVSQTHLVAIAPRWLAEEFAESLELQVLPLPLKQNSRTCYLSWHEAAGRDKGHQWMEEQLVSICKR”, the “total protein half-life in vivo” value is 5.69 ± 0.67 h under setting [1] and 1.07 h under setting [2].
As to “MNAIWIAVAAVSLLGLAFGAILGYASRRFAVEDDPVVEKIDEILPQSQCGQCGYPGCRPYAEAISCNGEKINRCAPGGEAVMLKIAELLNVEPQPLDGEAQEITPARMVAVIDENNCIGCTKCIQACPVDAIVGATRAMHTVMSDLCTGCNLCVDPCPTHCISLQPVAETPDSWKWDLNTIPVRIIPVEHHA”, the “total protein half-life in vivo” value under setting [1] is 2.26 ± 0.093 h; the “total protein half-life in vivo” value under setting [2] came out at 1.52 h; the “total protein half-life in vivo” value under setting [3] came out at 0.89 h; the “total protein half-life in vivo” value under setting [4] amounted to 0.945 h; the “total protein half-life in vivo” value under setting [5] was found to be 1.92 ± 0.49 h.
With “MKRWPVFPRSLRQLVMLAFLLILLPLLVLAWQAWQSLNALSDQAALVNRTTLIDARRSEAMTNAALEMERSYRQYCVLDDPTLAKVYQSQRKRYSEMLDAHAGVLPDDKLYQALRQDLHNLAQLQCNNSGPDAAAAARLEAFASANTEMVQATRTVVFSRGQQLQREIAERGQYFGWQSLVLFLVSLVMVLLFTRMIIGPVKNIERMINRLGEGRSLGNSVSFSGPSELRSVGQRILWLSERLSWLESQRHQFLRHLSHELKTPLASMREGTELLADQVVGPLTPEQKEVVSILDSSSRNLQKLIEQLLDYNRKQADSAVELENVELAPLVETVVSAHSLPARAKMMHTDVDLKATACLAEPMLLMSVLDNLYSNAVHYGAESGNICLRSSLHGARVYIDVINTGTPIPQEERAMIFEPFFQGSHQRKGAVKGSGLGLSIARDCIRRMQGELYLVDESGQDVCFRIELPSSKNTK”, the “total protein half-life in vivo” value turned out to be 6.52 ± 0.67 h under setting [1]; 6.72 ± 0.21 h under setting [2]; 6.56 ± 0.21 h under setting [6]; 6.41 ± 0.28 h under setting [7]; 3.12 ± 0.098 h under setting [8]; 10.8 ± 0.2 h under setting [9]. Besides, the “total protein half-life in vivo” value came out at 6.16 ± 0.12 h under setting [10], 13.1 ± 1 h under setting [11], 6.8109 ± 0.0031 h under setting [12] and 12.6 ± 0.89 h under setting [5].
In the case of “MAVIQDIIAALWQHDFAALADPHIVSVVYFVMFATLFLENGLLPASFLPGDSLLILAGALIAQGVMDFLPTIAILTAAASLGCWLSYIQGRWLGNTKTVKGWLAQLPAKYHQRATCMFDRHGLLALLAGRFLAFVRTLLPTMAGISGLPNRRFQFFNWLSGLLWVSVVTSFGYALSMIPFVKRHEDQVMTFLMILPIALLTAGLLGTLFVVIKKKYCNA [P0AA60]”, the “total protein half-life in vivo” value under setting [1] amounted to 4.46 h; the “total protein half-life in vivo” value under setting [2] was found to be 4.55 h; the “total protein half-life in vivo” value under setting [6] was found to be 3.26 h; the “total protein half-life in vivo” value under setting [8] was 2.23 h; the “total protein half-life in vivo” value under setting [4] came out at 4.04 ± 1.4 h; the “total protein half-life in vivo” value under setting [9] was 7.25 h. In addition, the “total protein half-life in vivo” value under setting [12] is above 8 h and the “total protein half-life in vivo” value under setting [5] is 8.67 h.
With “MNYHQYYPVDIVNGPGTRCTLFVSGCVHECPGCYNKSTWRVNSGQPFTKAMEDQIINDLNDTRIKRQGISLSGGDPLHPQNVPDILKLVQRIRAECPGKDIWVWTGYKLDELNAAQMQVVDLINVLVDGKFVQDLKDPSLIWRGSSNQVVHHLR [P0A9N8]”, the “total protein half-life in vivo” value reads like this: under setting [2], 1.08 h; under setting [9], 2.03 h.
For “MTESVARLRGEQLTLGYGKYTVAENLTVEIPDGHFTAIIGPNGCGKSTLLRTLSRLMTPAHGHVWLDGEHIQHYASKEVARRIGLLAQNATTPGDITVQELVARGRYPHQPLFTRWRKEDEEAVTKAMQATGITHLADQSVDTLSGGQRQRAWIAMVLAQETAIMLLDEPTTWLDISHQIDLLELLSELNREKGYTLAAVLHDLNQACRYASHLIALREGKIVAQGAPKEIVTAELIERIYGLRCMIIDDPVAGTPLVVPLGRTAPSTANS”, the “total protein half-life in vivo” value is 3.69 h under setting [3]; 3.78 h under setting [8]; 5.57 h under setting [4]; above 16 h under setting [9]; 7.66 h under setting [11].
Turning to “MFDRYDAGEQAVLVHIYFTQDKDMEDLQEFESLVSSAGVEALQVITGSRKAPHPKYFVGEGKAVEIAEAVKATGASVVLFDHALSPAQERNLERLCECRVIDRTGLILDIFAQRARTHEGKLQVELAQLRHLATRLVRGWTHLERQKGGIGLRGPGETQLETDRRLLRNRIVQIQSRLERVEKQREQGRQSRIKADVPTVSLVGYTNAGKSTLFNRITEARVYAADQLFATLDPTLRRIDVADVGETVLADTVGFIRHLPHDLVAAFKATLQETRQATLLLHVIDAADVRVQENIEAVNTVLEEIDAHEIPTLLVMNKIDMLEDFEPRIDRDEENKPNRVWLSAQTGAGIPQLFQALTERLSGEVAQHTLRLPPQEGRLRSRFYQLQAIEKEWMEEDGSVSLQVRMPIVDWRRLCKQEPALIDYLI”, the “total protein half-life in vivo” value under setting [1] worked out at 5.01 ± 0.4 h; the “total protein half-life in vivo” value under setting [2] turned out to be 4.19 ± 0.56 h; the “total protein half-life in vivo” value under setting [6] came to 3.18 ± 0.019 h; the “total protein half-life in vivo” value under setting [7] came out at 3.87 ± 0.12 h; the “total protein half-life in vivo” value under setting [3] was 2.77 ± 0.12 h; the “total protein half-life in vivo” value under setting [8] is 2.34 ± 0.078 h. Besides, the “total protein half-life in vivo” value reads like this: under setting [4], 4.15 ± 0.4 h; under setting [9], 5.93 ± 0.57 h; under setting [10], 3.31 ± 0.19 h; under setting [11], 4.68 ± 0.19 h; under setting [12], 3.34 ± 0.12 h; under setting [5], 5.9 ± 0.61 h.
Regarding “MTINFRRNALQLSVAALFSSAFMANAADVPQVKVTVTDKQCEPMTITVNAGKTQFIIQNHSQKALEWEILKGVMVVEERENIAPGFSQKMTANLQPGEYDMTCGLLTNPKGKLIVKGEATADAAQSDALLSLGGAITAYKAYVMAETTQLVTDTKAFTDAIKAGDIEKAKALYAPTRQHYERIEPIAELFSDLDGSIDAREDDYEQKAADPKFTGFHRLEKALFGDNTTKGMDQYAEQLYTDVVDLQKRISELAFPPSKVVGGAAGLIEEVAASKISGEEDRYSHTDLWDFQANVEGSQKIVDLLRPQLQKANPELLAKVDANFKKVDTILAKYRTKDGFETYDKLTDADRNALKGPITALAEDLAQLRGVLGLD [P0AB24]”, the “total protein half-life in vivo” value by setting is: under setting [1], 4.39 ± 0.98 h; under setting [2], 4.5 ± 0.11 h; under setting [6], 6.43 ± 1.4 h; under setting [7], 5.84 ± 0.061 h; under setting [3], 4.58 ± 1.5 h; under setting [8], 2.967 ± 0.019 h. The “total protein half-life in vivo” value under setting [4] is 6.25 ± 0.72 h; the “total protein half-life in vivo” value under setting [9] is 12.8 ± 0.93 h; the “total protein half-life in vivo” value under setting [10] was found to be 5.73 ± 0.24 h; the “total protein half-life in vivo” value under setting [11] is 10.3 ± 0.23 h; the “total protein half-life in vivo” value under setting [12] worked out at 5.01 ± 0.35 h; the “total protein half-life in vivo” value under setting [5] came to 12.2 ± 2.8 h.
As to “MNQFYVHVRLFEDTAEQTKKFEELMLNFLYQKTVKESDDSCCRLIPEGYILKSTMNCQQILDQTFSIANSAGVDANIFVCKFEQSACLLPSASLVGNDFVHYDLTPKPIKLDS”, the “total protein half-life in vivo” value under setting [1] was determined as 5.47 ± 0.25 h.
